Measured values: article PMC6814797, “C-terminal–modified LY2510924: a versatile scaffold for targeting C-X-C chemokine receptor type 4” (Scientific Reports, 2019)
Where a SMILES comes first, the peptide text is derived from it. Bridges are numbered along the chain shown (N, C = ends). [ ]: non-standard residue; d: D form. 2Nal = N[C@@H](Cc1ccc2ccccc2c1)C(=O)O; Lys(iPr) = CC(C)NCCCC[C@H](N)C(=O)O

What was measured:
[1] = molecular target: T1, CXCR4 (Homo sapiens, UniProt P61073); assay: Competitive binding assay: displacement of 125I-SDF-1α from CXCR4-expressing CCRF-CEM cells; details: CCRF-CEM 0.5 × 10^6 cells, 125I-SDF-1α 1 kBq, 0.25 nM SDF-1α, one hour, room temperature per method (b54 says 37 °C); mean ± SD, n = 3
T1 construct: were determined with CCRF-CEM cells expressing endogenous CXCR4; endogenous in cells; host or cells: CCRF-CEM (human acute lymphoblastic leukemia) whole cells
Description: CCRF-CEM cells and ^125I-SDF-1α were used for the competitive binding assay. The competitive binding assay was performed in a 96-well MultiScreen HTS FB plate (Merck) treated with 0.1% polyethyleneimine. RPMI-1640 containing 1% bovine serum albumin (BSA) and 0.05% Tween20 was used for the assay buffer. Briefly, 200-μL reaction mixtures containing CCRF-CEM (0.5 × 10^6 cells), ^125I-SDF-1α (1 kBq), SDF-1α (0.05 pmol; R&D Systems, Minneapolis, MN), and varying concentrations of CXCR4 antagonists were incubated at room temperature for one hour. After the incubation, the cells were washed three times with the assay buffer, and radioactivity counts of cells were determined with a gamma counter. The IC50 values were calculated by using GraphPad Prism version 5.04 (GraphPad Software, San Diego, CA).
Since the purpose of this study was to assess in vivo accumulation to CXCR4-expressing cells, the apparent binding affinities were determined at 37 °C. […] The half-maximal inhibitory concentration (IC50) values of FRM001, its Ga-, Lu-, and Y-complexes, and other CXCR4 antagonists were determined with CCRF-CEM cells expressing endogenous CXCR4[34]. The displacement of ^125I-SDF-1α bound to the CXCR4 with the compounds was also evaluated in the presence of 0.25 nM of SDF-1α.

[2] = physchem; format: physicochemical; details: pH 7.4
Description: A solution of ^67Ga-FRM001 (168 kBq, 56.8 pmol of FRM001) in 0.5 mL of 1-octanol was added to a 0.5 mL solution of phosphate-buffered saline (PBS) (pH 7.4). The mixture was vortexed and rotated at room temperature for 5 min. After centrifugation at 13,000 × g for 5 min, the radioactivity concentrations in samples of both the aqueous and organic phases were determined by using a gamma counter, and the logPow values were calculated.

[3] = in vivo; details: female, SCID (C.B-17/Icr-scid/scid), mouse, iv, total radioactivity; for tissue uptake at 4 h: biodistribution
Description: All animal experiments were conducted in accordance with the Guidelines for Proper Conduct of Animal Experiments issued by the Science Council of Japan (June 1, 2006), and all experimental protocols were approved by the Institutional Animal Care and Use Committee of FUJIFILM RI Pharma Co., Ltd. (Permit No. Rin-170802 and Rin-180101). The acute lymphoblastic leukemia CCRF-CEM model was prepared using a published procedure. Briefly, 5 × 10^6 cells mixed with Matrigel (1:1; Corning, Corning, NY) were implanted subcutaneously into the rear flank of female 10-week-old SCID mice (C.B-17/Icr-scid/scid; CLEA Japan, Tokyo). After an average of three weeks, the animals were used in biodistribution and PET imaging studies. Tumor volumes ranged from 709–2,257 mm^3, while the tumor mass-to-body weight ratio was 3.1–9.4%.
Mice were sacrificed at four hours after the injection. Organs of interest were removed, weighed, and the radioactivity counts were determined using a gamma counter. The biodistribution of each sample was expressed as a percentage of the injected dose per gram of wet tissue weight (%ID/g).

T1 sequence (P61073 whole entry): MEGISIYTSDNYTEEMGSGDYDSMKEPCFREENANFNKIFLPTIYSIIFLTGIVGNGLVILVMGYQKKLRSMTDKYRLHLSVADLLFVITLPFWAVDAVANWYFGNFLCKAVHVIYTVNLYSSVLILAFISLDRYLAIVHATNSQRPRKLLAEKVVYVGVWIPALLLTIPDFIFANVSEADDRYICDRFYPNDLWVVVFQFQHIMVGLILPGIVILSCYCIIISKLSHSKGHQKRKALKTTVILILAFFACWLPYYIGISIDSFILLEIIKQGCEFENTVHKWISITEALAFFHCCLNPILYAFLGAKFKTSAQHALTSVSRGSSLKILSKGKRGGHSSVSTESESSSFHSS

Question: Which IC50 [1] does the source give for `CC(C)NCCCC[C@@H]1NC(=O)[C@H](Cc2ccc(O)cc2)NC(=O)[C@H](Cc2ccccc2)NC(=O)CC[C@H](C(=O)N[C@@H](CCCCNC(C)C)C(=O)N[C@@H](CSC2CC(=O)N(CCNC(=O)CN3CCN(CC(=O)O)CCN(CC(=O)O)CCN(CC(=O)O)CC3)C2=O)C(N)=O)NC(=O)CNC(=O)[C@H](Cc2ccc3ccccc3c2)NC(=O)[C@@H](CCCNC(=N)N)NC1=O` (stereo partly drawn) [FRM001, cyclo[Phe-Tyr-Lys(iPr)-D-Arg-2-Nal-Gly-D-Glu]-Lys(iPr)-Cys(maleimido-mono-amide-DOTA)-NH2] here?
Answer: The IC50 was 1.78 ± 0.15 nM.

Question: With `CC(C)NCCCC[C@@H]1NC(=O)[C@H](Cc2ccc(O)cc2)NC(=O)[C@H](Cc2ccccc2)NC(=O)CC[C@H](C(=O)N[C@@H](CCCCNC(C)C)C(=O)N[C@@H](CSC2CC(=O)N(CCNC(=O)CN3CCN(CC(=O)O)CCN(CC(=O)O)CCN(CC(=O)O)CC3)C2=O)C(N)=O)NC(=O)CNC(=O)[C@H](Cc2ccc3ccccc3c2)NC(=O)[C@@H](CCCNC(=N)N)NC1=O` (stereo partly shown) [^67Ga-FRM001, metal not drawn] as the compound, how does the logD [2] read?
Answer: Its logD is -3.23 ± 0.05.

Question: What about the tissue to tissue ratio at 4 h ([3]; 0.2 nmol FRM001/mouse) of the same compound?
Answer: Its tissue to tissue ratio at 4 h is 59.

Question: What about the tissue uptake at 4 h ([3]; 0.2 nmol FRM001/mouse, adrenals) of the same compound?
Answer: The tissue uptake at 4 h was 1.02 ± 0.192 %ID/g.

Question: And the tissue uptake at 4 h ([3]; 0.2 nmol FRM001/mouse, blood)?
Answer: Its tissue uptake at 4 h is 0.205 ± 0.033 %ID/g.

Question: And the tissue uptake at 4 h ([3]; 0.2 nmol FRM001/mouse, bone)?
Answer: Its tissue uptake at 4 h is 0.682 ± 0.099 %ID/g.

Question: And the tissue uptake at 4 h ([3]; 0.2 nmol FRM001/mouse, brain)?
Answer: Its tissue uptake at 4 h is 0.015 ± 0.003 %ID/g.

Question: And the tissue uptake at 4 h ([3]; 0.2 nmol FRM001/mouse, fat)?
Answer: The tissue uptake at 4 h was 0.291 ± 0.137 %ID/g.

Question: What about the tissue uptake at 4 h ([3]; 0.2 nmol FRM001/mouse, heart) of the same compound?
Answer: Its tissue uptake at 4 h is 0.385 ± 0.063 %ID/g.

Question: What about the tissue uptake at 4 h ([3]; 0.2 nmol FRM001/mouse, kidneys) of the same compound?
Answer: The tissue uptake at 4 h was 4.85 ± 0.501 %ID/g.

Question: What about the tissue uptake at 4 h ([3]; 0.2 nmol FRM001/mouse, large intestine) of the same compound?
Answer: The tissue uptake at 4 h was 0.852 ± 0.318 %ID/g.

Question: What about the tissue uptake at 4 h ([3]; 0.2 nmol FRM001/mouse, liver) of the same compound?
Answer: The tissue uptake at 4 h was 16.1 ± 2.66 %ID/g.

Question: What about the tissue uptake at 4 h ([3]; 0.2 nmol FRM001/mouse, lungs) of the same compound?
Answer: The tissue uptake at 4 h was 2.01 ± 0.301 %ID/g.

Question: And the tissue uptake at 4 h ([3]; 0.2 nmol FRM001/mouse, muscle)?
Answer: Its tissue uptake at 4 h is 0.107 ± 0.018 %ID/g.

Question: What about the tissue uptake at 4 h ([3]; 0.2 nmol FRM001/mouse, ovary) of the same compound?
Answer: Its tissue uptake at 4 h is 0.808 ± 0.247 %ID/g.

Question: What about the tissue uptake at 4 h ([3]; 0.2 nmol FRM001/mouse, skin) of the same compound?
Answer: The tissue uptake at 4 h was 0.404 ± 0.076 %ID/g.

Question: What about the tissue uptake at 4 h ([3]; 0.2 nmol FRM001/mouse, small intestine) of the same compound?
Answer: Its tissue uptake at 4 h is 0.355 ± 0.036 %ID/g.

Question: What about the tissue uptake at 4 h ([3]; 0.2 nmol FRM001/mouse, stomach) of the same compound?
Answer: The tissue uptake at 4 h was 0.381 ± 0.417 %ID/g.

Question: And the tissue uptake at 4 h ([3]; 0.2 nmol FRM001/mouse, thymus)?
Answer: Its tissue uptake at 4 h is 1.57 ± 0.587 %ID/g.

Question: And the tissue uptake at 4 h ([3]; 0.2 nmol FRM001/mouse, tumor)?
Answer: Its tissue uptake at 4 h is 12 ± 1.99 %ID/g.

Question: And the tissue uptake at 4 h ([3]; 0.2 nmol FRM001/mouse, uterus)?
Answer: Its tissue uptake at 4 h is 0.944 ± 0.338 %ID/g.

Question: What about the tissue uptake at 4 h ([3]; 0.2 nmol/mouse, pancreas) of the same compound?
Answer: The tissue uptake at 4 h was 0.198 ± 0.016 %ID/g.

Question: And the tissue uptake at 4 h ([3]; 0.2 nmol/mouse, spleen)?
Answer: The tissue uptake at 4 h was 3.77 ± 0.195 %ID/g.

Question: With `CC(C)NCCCC[C@@H]1NC(=O)[C@H](Cc2ccc(O)cc2)NC(=O)[C@H](Cc2ccccc2)NC(=O)CC[C@H](C(=O)N[C@@H](CCCCNC(C)C)C(=O)N[C@@H](CSC2CC(=O)N(CCNC(=O)CN3CCN(CC(=O)O)CCN(CC(=O)O)CCN(CC(=O)O)CC3)C2=O)C(N)=O)NC(=O)CNC(=O)[C@H](Cc2ccc3ccccc3c2)NC(=O)[C@@H](CCCNC(=N)N)NC1=O` (stereo partly shown) [Lu-FRM001] as the compound, how does the IC50 [1] read?
Answer: The IC50 was 2.15 ± 0.14 nM.

Question: With `CC(C)NCCCC[C@@H]1NC(=O)[C@H](Cc2ccc(O)cc2)NC(=O)[C@H](Cc2ccccc2)NC(=O)CC[C@H](C(=O)N[C@@H](CCCCNC(C)C)C(=O)N[C@@H](CSC2CC(=O)N(CCNC(=O)CN3CCN(CC(=O)O)CCN(CC(=O)O)CCN(CC(=O)O)CC3)C2=O)C(N)=O)NC(=O)CNC(=O)[C@H](Cc2ccc3ccccc3c2)NC(=O)[C@@H](CCCNC(=N)N)NC1=O` (stereo partly shown) [Y-FRM001] as the compound, how does the IC50 [1] read?
Answer: Its IC50 is 0.89 ± 0.04 nM.

Question: Which IC50 [1] does the source give for `CC(C)NCCCC[C@H](NC(=O)[C@H]1CCC(=O)N[C@@H](Cc2ccccc2)C(=O)N[C@@H](Cc2ccc(O)cc2)C(=O)N[C@@H](CCCCNC(C)C)C(=O)N[C@H](CCCNC(=N)N)C(=O)N[C@@H](Cc2ccc3ccccc3c2)C(=O)NCC(=O)N1)C(N)=O` [LY2510924, cyclo[Phe-Tyr-Lys(iPr)-D-Arg-2-Nal-Gly-D-Glu]-Lys(iPr)-NH2] (FY[Lys(iPr)][dR][2Nal]G[dE][Lys(iPr)]-NH2; lactam N-7) here?
Answer: Its IC50 is 1.37 ± 0.1 nM.

Question: With `c1ccc(CNCc2ccc(CN3CCCNCCNCCCNCC3)cc2)nc1` [AMD3465, reference compound] as the compound, how does the IC50 [1] read?
Answer: The IC50 was 12.8 ± 1.52 nM.

Question: For `CC(C)NCCCC[C@@H]1NC(=O)[C@H](Cc2ccc(O)cc2)NC(=O)[C@H](Cc2ccccc2)NC(=O)CC[C@H](C(=O)N[C@@H](CCCCNC(C)C)C(=O)N[C@@H](CSC2CC(=O)N(CCNC(=O)CN3CCN(CC(=O)O)CCN(CC(=O)O)CCN(CC(=O)O)CC3)C2=O)C(N)=O)NC(=O)CNC(=O)[C@H](Cc2ccc3ccccc3c2)NC(=O)[C@@H](CCCNC(=N)N)NC1=O` (stereo partly shown) [Ga-FRM001], which IC50 [1] is on record?
Answer: The IC50 was 2.26 ± 0.51 nM.
